{"source": "FireProtDB (doi:10.1093/protein/13.4.299)", "proteins": {"B1": {"name": "Lysozyme C wild type, P61626 (protein)", "chain": "MKALIVLGLVLLSVTVQGKVFERCELARTLKRLGMDGYRGISLANWMCLAKWESGYNTRATNYNAGDRSTDYGIFQINSRYWCNDGKTPGAVNACHLSCSALLQDNIADAVACAKRVVRDPQGIRAWVAWRNRCQNRDVRQYVQGCGV"}}, "details": "Homo sapiens, DSC, reversible: yes, whole UniProt chain shown; for Tm / heat capacity change of unfolding / unfolding enthalpy (calorimetric) / unfolding enthalpy (van 't Hoff): Thermal; for denaturant m value / denaturant midpoint (higher = more stable) / unfolding free energy: 25 °C, GdnHCl", "note": "Where “and” joins values, the source holds several entries; their conditions need not be identical. Equal entries are not always repeated.", "data": [{"protein": "B1", "values": [{"measurement": "Tm", "setting": "pH 2.63, glycine-HCl 50 mM", "result": 55.6, "unit": "°C"}, {"measurement": "heat capacity change of unfolding", "setting": "pH 2.63, glycine-HCl 50 mM", "result": 1.94, "unit": "kcal/mol/K"}, {"measurement": "unfolding enthalpy (calorimetric)", "setting": "pH 2.63, glycine-HCl 50 mM", "result": 90.6, "unit": "kcal/mol"}, {"measurement": "unfolding enthalpy (van 't Hoff)", "setting": "pH 2.63, glycine-HCl 50 mM", "result": 96.3, "unit": "kcal/mol"}, {"measurement": "Tm", "setting": "pH 2.64, glycine-HCl 50 mM", "result": 56.4, "unit": "°C"}, {"measurement": "heat capacity change of unfolding", "setting": "pH 2.64, glycine-HCl 50 mM", "result": 1.63, "unit": "kcal/mol/K"}, {"measurement": "unfolding enthalpy (calorimetric)", "setting": "pH 2.64, glycine-HCl 50 mM", "result": 95.1, "unit": "kcal/mol"}, {"measurement": "unfolding enthalpy (van 't Hoff)", "setting": "pH 2.64, glycine-HCl 50 mM", "result": 95.6, "unit": "kcal/mol"}, {"measurement": "Tm", "setting": "pH 2.68, glycine-HCl 50 mM", "result": 56.8, "unit": "°C"}, {"measurement": "heat capacity change of unfolding", "setting": "pH 2.68, glycine-HCl 50 mM", "result": 1.94, "unit": "kcal/mol/K"}, {"measurement": "unfolding enthalpy (calorimetric)", "setting": "pH 2.68, glycine-HCl 50 mM", "result": 92, "unit": "kcal/mol"}, {"measurement": "unfolding enthalpy (van 't Hoff)", "setting": "pH 2.68, glycine-HCl 50 mM", "result": 96.3, "unit": "kcal/mol"}, {"measurement": "Tm", "setting": "pH 2.75, glycine-HCl 50 mM", "result": 58.2, "unit": "°C"}, {"measurement": "heat capacity change of unfolding", "setting": "pH 2.75, glycine-HCl 50 mM", "result": 1.77, "unit": "kcal/mol/K"}, {"measurement": "unfolding enthalpy (calorimetric)", "setting": "pH 2.75, glycine-HCl 50 mM", "result": 97.5, "unit": "kcal/mol"}, {"measurement": "unfolding enthalpy (van 't Hoff)", "setting": "pH 2.75, glycine-HCl 50 mM", "result": 99, "unit": "kcal/mol"}, {"measurement": "Tm", "setting": "pH 2.78, glycine-HCl 50 mM", "result": 59, "unit": "°C"}, {"measurement": "heat capacity change of unfolding", "setting": "pH 2.78, glycine-HCl 50 mM", "result": 1.31, "unit": "kcal/mol/K"}, {"measurement": "unfolding enthalpy (calorimetric)", "setting": "pH 2.78, glycine-HCl 50 mM", "result": 98, "unit": "kcal/mol"}, {"measurement": "unfolding enthalpy (van 't Hoff)", "setting": "pH 2.78, glycine-HCl 50 mM", "result": 101, "unit": "kcal/mol"}, {"measurement": "Tm", "setting": "pH 2.84, glycine-HCl 50 mM", "result": 60.3, "unit": "°C"}, {"measurement": "heat capacity change of unfolding", "setting": "pH 2.84, glycine-HCl 50 mM", "result": 1.67, "unit": "kcal/mol/K"}, {"measurement": "unfolding enthalpy (calorimetric)", "setting": "pH 2.84, glycine-HCl 50 mM", "result": 98.5, "unit": "kcal/mol"}, {"measurement": "unfolding enthalpy (van 't Hoff)", "setting": "pH 2.84, glycine-HCl 50 mM", "result": 103, "unit": "kcal/mol"}, {"measurement": "Tm", "setting": "pH 2.87, glycine-HCl 50 mM", "result": 60.5, "unit": "°C"}, {"measurement": "heat capacity change of unfolding", "setting": "pH 2.87, glycine-HCl 50 mM", "result": 1.7, "unit": "kcal/mol/K"}, {"measurement": "unfolding enthalpy (calorimetric)", "setting": "pH 2.87, glycine-HCl 50 mM", "result": 99, "unit": "kcal/mol"}, {"measurement": "unfolding enthalpy (van 't Hoff)", "setting": "pH 2.87, glycine-HCl 50 mM", "result": 99, "unit": "kcal/mol"}, {"measurement": "Tm", "setting": "pH 2.93, glycine-HCl 50 mM", "result": 62.5, "unit": "°C"}, {"measurement": "heat capacity change of unfolding", "setting": "pH 2.93, glycine-HCl 50 mM", "result": 1.46, "unit": "kcal/mol/K"}, {"measurement": "unfolding enthalpy (calorimetric)", "setting": "pH 2.93, glycine-HCl 50 mM", "result": 102, "unit": "kcal/mol"}, {"measurement": "unfolding enthalpy (van 't Hoff)", "setting": "pH 2.93, glycine-HCl 50 mM", "result": 102, "unit": "kcal/mol"}, {"measurement": "denaturant m value", "setting": "pH 3, glycine-HCl 50 mM", "result": "3.23 kcal/mol/M and 3.01 kcal/mol/M"}, {"measurement": "denaturant midpoint (higher = more stable)", "setting": "pH 3, glycine-HCl 50 mM", "result": "2.9 M and 2.1 M"}, {"measurement": "unfolding free energy", "setting": "pH 3, glycine-HCl 50 mM", "result": "9.49 kcal/mol and 6.19 kcal/mol"}, {"measurement": "denaturant m value", "setting": "pH 4, glycine-HCl 50 mM", "result": "3.37 kcal/mol/M and 2.96 kcal/mol/M"}, {"measurement": "denaturant midpoint (higher = more stable)", "setting": "pH 4, glycine-HCl 50 mM", "result": "3.8 M and 2.8 M"}, {"measurement": "unfolding free energy", "setting": "pH 4, glycine-HCl 50 mM", "result": "12.9 kcal/mol and 8.25 kcal/mol"}, {"measurement": "denaturant m value", "setting": "pH 7, Sodium phosphate 50 mM", "result": 3.01, "unit": "kcal/mol/M"}, {"measurement": "denaturant midpoint (higher = more stable)", "setting": "pH 7, Sodium phosphate 50 mM", "result": 4, "unit": "M"}, {"measurement": "unfolding free energy", "setting": "pH 7, Sodium phosphate 50 mM", "result": 12.1, "unit": "kcal/mol"}]}]}
